Data published in patent publication US11839630B2, “CAR-T cells targeting IL-1RAP and their use” (ETABLISSEMENT FRANCAIS DU SANG, priority 2017, dated 2023).

What was measured:
[1] = molecular target: T1, IL-1RAP recombinant protein (Homo sapiens, UniProt Q9NPH3); assay: ELISA against recombinant IL-1RAP protein; assay type: binding; conditions: BSA negative control
T1 construct: recombinant fusion protein consisting of the extra cellular part of IL-1RAP (NM_002182.2, NCBI) and the Fc-part of human IgG1; purchased R&D Systems
T1 sequence (Q9NPH3 21-367 limits assumed): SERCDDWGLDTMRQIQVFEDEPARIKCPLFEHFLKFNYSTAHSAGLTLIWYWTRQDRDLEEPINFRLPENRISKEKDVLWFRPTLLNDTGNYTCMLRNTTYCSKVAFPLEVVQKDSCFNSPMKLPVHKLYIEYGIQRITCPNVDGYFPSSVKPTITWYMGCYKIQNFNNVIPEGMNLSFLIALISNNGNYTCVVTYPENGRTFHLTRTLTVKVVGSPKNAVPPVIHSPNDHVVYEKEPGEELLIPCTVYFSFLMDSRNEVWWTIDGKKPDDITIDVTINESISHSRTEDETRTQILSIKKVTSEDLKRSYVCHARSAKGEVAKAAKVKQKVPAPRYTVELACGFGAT
Description: FIG. 2: recognition of IL-1RAP recombinant protein with #E3C3 mAb by the ELISA technique (b). BSA is the negative control (a).
Anti-human Fc antibody was coated on a bottom of a plastic ELISA plate.

[2] = molecular target: T2, IL-1RAP (Homo sapiens, UniProt Q9NPH3); assay: Western blot with #E3C3 mAb; assay type: binding; conditions: leukemic cell line lysates; #E3C3 diluted 1:10^3
T2 sequence (Q9NPH3 21-570): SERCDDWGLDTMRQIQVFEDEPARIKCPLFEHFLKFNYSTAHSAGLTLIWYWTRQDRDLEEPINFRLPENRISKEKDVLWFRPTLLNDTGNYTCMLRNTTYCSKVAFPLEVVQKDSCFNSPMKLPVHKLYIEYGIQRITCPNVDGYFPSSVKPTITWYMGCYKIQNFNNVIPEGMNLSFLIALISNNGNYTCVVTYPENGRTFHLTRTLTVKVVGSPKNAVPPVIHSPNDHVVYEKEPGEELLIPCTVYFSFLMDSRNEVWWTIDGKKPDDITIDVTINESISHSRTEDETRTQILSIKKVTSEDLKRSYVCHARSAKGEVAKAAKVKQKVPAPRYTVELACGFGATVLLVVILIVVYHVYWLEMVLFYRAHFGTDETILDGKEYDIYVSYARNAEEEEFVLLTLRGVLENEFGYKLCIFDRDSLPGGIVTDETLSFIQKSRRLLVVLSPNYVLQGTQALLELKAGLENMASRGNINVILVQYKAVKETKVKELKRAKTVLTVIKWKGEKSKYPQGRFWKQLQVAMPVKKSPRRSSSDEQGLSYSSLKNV
Description: FIG. 1: Use of #E3C3 mAb in western blot. The leukemic cell lines KU812, KG-1, Nalm-20, Jurkat, and Raji are used. Transfected HT1080 cell line with IL-1RAP cDNA variant was used as control. […] Line a: detection of IL-1RAP (72 kDA), Line b: detection of the control actin (43 kDA), *: weak signal.
Whole-cell, subcellular or secreted protein fractions of cells listed in example 1 were obtained after sonication and suspended in RIPA lysis and extraction buffer (ThermoFisher Scientific) supplemented with a protease inhibitor cocktail (complete Mini EDTA-free; Roche, Switzerland). Transfected HT1080 cell line with IL-1RAP cDNA variant 1 (NM_002182.2, NCBI) was used as control. […] Transferred proteins on PDVF membranes were probed overnight with either primary IL-1RAP #E3C3 (diluted at 1:10^3), CD3zeta (BD Pharmigen, clone #8D3) or β-actin (1:10^3, clone AC15, #A5441, Sigma-Aldrich) respectively for IL-1RAP, CAR or β-actin expression. Immunodetection staining was performed with a secondary polyclonal antibody sheep anti-mouse IgG (#515-035-062, Jackson, USA). Detection was performed with a camera and Bio-1D software (Vilber-Lourmat, Collegien, France).

[3] = test system: IL-1RAP-positive (KU812) cell line; assay: FACS screening of hybridoma subclones; assay type: binding, human; conditions: 5 monoclonal antibody subclones
Description: Briefly, BALB/c mice (5 weeks, Charles River) were immunized either by foot pad (n=3) or intraperitoneally (n=5) with a recombinant fusion protein consisting of the extra cellular part of IL-1RAP (NM_002182.2, NCBI) and the Fc-part of human IgG1 (R&D Systems, Lille, France). Lymph nodes or spleens cells and blood samples were harvested and cells were fused with the mouse myeloma cell line, then screened by FACS analysis (Becton Dickinson), against IL-1RAP-positive (KU812) and −negative (Raji, KG1) cell lines.
Screening of hybridoma allowed to select 5 monoclonal antibodies subclones that discriminate IL-1RAP positive (KU812 or KG-1 respectively AML or Phi^+p^210 CML) from negative cell lines (Tom-1, NALM-20, Jurkat or Raji, respectively Phi+^p190 B-ALL, Phi-B-ALL, T-ALL or Burkitt's lymphoma).
Molecular characterization was performed by Sanger sequencing of cloned PCR products amplification obtained with degenerated primers specific of the FR1 and constant regions of the heavy and light chains according to the protocol of Wang. Z., et al (J. Immunol. Methods, 2000; 233, pp 167-77). Identification of V-D-J-C gene rearrangement and CDR3 region was obtained after alignment of consensus nucleotide sequences against the IMGT® database using V-QUEST online tool according to Brochet X., et al. (Nucleic Acids Res., 2008, 36, pp 503-8).

- detection in western blot [2]: reveals KU812
B1: #E3C3: mouse anti-hIL-1RAP monoclonal antibody subclone generated by standard hybridoma technique; VH SEQ ID NO: 2, VL SEQ ID NO: 4 (antibody, V domains shown)
VH: MGWSCIILFLVATATGVNSQVQLQQPGAELMMPGASVKVSCEASGYTFTDSWMHWVKQRPGQGLEWIGAIDPSDSYTTYNQKFTGKATLSVDESSNTAYMQLSSLTSEDSAVYYCARYYSGSNYISPFPYWGQGTLVTVSA
VL: MESQIQVFVFVFLWLSGVDGDIVMTQSHKFMSTSVGDRVTITCKASLDVSTAVAWYQQKPGQSPKLLIYSASYRYTGVPDRFTGSGSGTDFTFTISSVQAEDLAVYYCQQHYSPPFTFGSGTNLEIK
modifications: Amino acid sequence of chain H (VH) of murine scFv anti-IL-1RAP; Amino acid sequence of chain K (VL) of murine scFv anti-IL-1RAP
- recognition of IL-1RAP recombinant protein by ELISA [1]: recognize the IL-1RAP recombinant protein
- relative fluorescence intensity (RFI) by cytometry among subclones [3]: highest relative fluorescence intensity
